Measurements taken from paper PMC9943661, “8-Oxoguanine targeted by 8-oxoguanine DNA glycosylase 1 (OGG1) is central to fibrogenic gene activation upon lung injury”.

B1: G'1 (dsDNA)
DNA 1: CCCCAGGGTGAGCCCAGCTCAGACTATCATCCGGAAAGCCCCCAAAAGTCCCAGCCC
DNA 2: GGGCTGGGACTTTTGGGGGCTTTCCGGATGATAGTCTGAGCTGGGCTCACCCTGGGG
modifications: 8-oxoG at strand 1 position 6
B2: G'3 (dsDNA)
DNA 1: B1 DNA 1
DNA 2: B1 DNA 2
modifications: 8-oxoG at strand 2 position 43 from its 5' end (opposite strand 1 position 15)
B3: G (dsDNA)
DNA 1: B1 DNA 1
DNA 2: B1 DNA 2
B4: G'2 (dsDNA)
DNA 1: B1 DNA 1
DNA 2: B1 DNA 2
modifications: 8-oxoG at strand 2 position 6 from its 5' end

Experiments:
SMAD3 [1] = molecular target: T1, SMAD3 (UniProt P84022 1-425); assay: EMSA; 10 mM HEPES pH 7.9, 10 mM KCl, 1.5 mM MgCl2, 1 mM DTT, 5% glycerol, 20 nM Cy5-DNA, on ice; 6% PAGE at 4 C; conditions: protein: recombinant; label: 5'-Cy5 on strand 1; blunt
T1 sequence (P84022 whole entry): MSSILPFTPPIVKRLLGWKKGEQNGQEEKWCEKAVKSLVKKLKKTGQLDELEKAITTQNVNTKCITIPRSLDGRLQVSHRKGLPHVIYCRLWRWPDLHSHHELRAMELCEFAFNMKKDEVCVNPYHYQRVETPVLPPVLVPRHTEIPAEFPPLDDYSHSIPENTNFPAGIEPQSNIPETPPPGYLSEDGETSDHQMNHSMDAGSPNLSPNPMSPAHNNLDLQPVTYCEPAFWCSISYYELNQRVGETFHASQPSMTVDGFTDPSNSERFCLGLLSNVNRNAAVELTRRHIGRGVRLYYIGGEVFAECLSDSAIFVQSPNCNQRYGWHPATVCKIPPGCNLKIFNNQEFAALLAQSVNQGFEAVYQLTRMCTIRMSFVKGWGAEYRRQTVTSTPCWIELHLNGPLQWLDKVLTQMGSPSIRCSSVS

OGG1 = OGG1 (UniProt O15527 1-345); assay: as above; conditions: protein: commercial; tags: His; label: 5'-Cy5 on strand 1; blunt
Chain of OGG1 (O15527 whole entry): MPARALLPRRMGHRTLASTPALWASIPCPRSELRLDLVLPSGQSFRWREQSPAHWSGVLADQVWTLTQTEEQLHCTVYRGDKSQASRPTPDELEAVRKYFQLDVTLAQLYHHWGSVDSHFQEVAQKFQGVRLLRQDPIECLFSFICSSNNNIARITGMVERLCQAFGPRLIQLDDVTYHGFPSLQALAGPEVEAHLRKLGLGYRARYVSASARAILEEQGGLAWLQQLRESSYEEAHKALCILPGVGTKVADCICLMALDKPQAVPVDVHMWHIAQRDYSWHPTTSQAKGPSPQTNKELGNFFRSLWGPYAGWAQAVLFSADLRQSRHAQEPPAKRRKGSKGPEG

SMAD2 = SMAD2 (UniProt Q15796 1-467); assay: EMSA; with OGG1 100 nM, SMAD2 800 nM; shift increased; 10 mM HEPES pH 7.9, 10 mM KCl, 1.5 mM MgCl2, 1 mM DTT, 5% glycerol, 20 nM Cy5-DNA, on ice; 6% PAGE at 4 C; conditions: protein: recombinant; label: 5'-Cy5 on strand 1; blunt
Chain of SMAD2 (Q15796 whole entry): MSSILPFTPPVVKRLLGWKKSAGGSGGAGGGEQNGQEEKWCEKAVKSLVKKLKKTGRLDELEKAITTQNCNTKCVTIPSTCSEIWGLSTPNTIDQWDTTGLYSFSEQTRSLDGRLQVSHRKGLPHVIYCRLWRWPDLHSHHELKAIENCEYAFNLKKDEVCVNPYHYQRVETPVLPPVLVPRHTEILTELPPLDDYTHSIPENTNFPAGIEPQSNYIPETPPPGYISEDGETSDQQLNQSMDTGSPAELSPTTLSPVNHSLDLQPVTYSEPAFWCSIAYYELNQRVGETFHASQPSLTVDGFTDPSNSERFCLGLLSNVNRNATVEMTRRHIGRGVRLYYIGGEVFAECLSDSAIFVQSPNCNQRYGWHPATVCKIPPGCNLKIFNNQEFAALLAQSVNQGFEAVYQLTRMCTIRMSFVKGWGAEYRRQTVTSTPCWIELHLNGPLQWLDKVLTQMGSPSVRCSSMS

SMAD3 [2] = molecular target: T1, SMAD3; assay: EMSA; OGG1 + TH2840 (no decrease); 10 mM HEPES pH 7.9, 10 mM KCl, 1.5 mM MgCl2, 1 mM DTT, 5% glycerol, 20 nM Cy5-DNA, on ice; 6% PAGE at 4 C; conditions: protein: recombinant; label: 5'-Cy5 on strand 1; blunt

Row | Binder | binding result (SMAD3 [1]) | binding result (OGG1) | binding result (SMAD2) | binding result (SMAD3 [2])
1 | B1 | binds | binds |  | 
2 | B2 |  | binds | binds | binds
3 | B3 | binds |  |  | 
4 | B4 | binds | binds |  | 
